B1: LIR(UBR4)-GFP (domain or fragment)
chain: QEQSEVDHGDFEMVSESMVLETAEN
notes: source: HKO HeLa cells, transfected, in cells; not shown: GFP, C-terminal, kept
B2: LIR(ULK1)-GFP (domain or fragment)
chain: SKDSSCDTDDFVMVPAQFPGDLVAE
notes: as for B1
B3: LIR(ULK2)-GFP (domain or fragment)
chain: SKNSSCDTDDFVLVPHNISSDHSCD
notes: as for B1
B4: LIR(TP[T]) peptide (peptide)
peptide: DGTLIIDLPDSY
notes: also called TP53INP2 peptide; source: synthetic peptide (Cosmo Bio), purified by SEC
B5: LIR(WDFY3/ALFY)-GFP (domain or fragment)
chain: DQLSLDEKDGFIFVNYSEGQTRAHL
notes: as for B1
B6: LIR(ATG4A)-GFP (domain or fragment)
chain: QLEEFDLEEDFEILSV
notes: as for B1
B7: LIR(4B)-GFP (domain or fragment)
chain: ERFFDSEDEDFEILSL
notes: also called ATG4B (4B); source: HKO HeLa cells, transfected, in cells; not shown: GFP, C-terminal, kept
B8: LIR(ATG4C)-GFP (domain or fragment)
chain: KQLKRFSTEEFVLL
notes: as for B1
B9: LIR(ATG4D)-GFP (domain or fragment)
chain: LRAKRPSSEDFVFL
notes: as for B1
B10: LIR(BNIP3)-GFP (domain or fragment)
chain: GMQEESLQGSWVELHFSNNGNGGSV
notes: as for B1
B11: LIR(FUNDC1)-GFP (domain or fragment)
chain: PQDYESDDDSYEVLDLTEYARRHQW
notes: as for B1
B12: LIR(JMY)-GFP (domain or fragment)
chain: FALEETLESDWVAVRPHVFDEREKH
notes: as for B1
B13: LIR(PLEKHM1)-GFP (domain or fragment)
chain: QKVRPQQEDEWVNVQYPDQPEEPPE
notes: as for B1
B14: LIR(St)-GFP (domain or fragment)
chain: NSQDRVDHEEWEMVPRHSSWGDVGV
notes: also called STBD1 (St); source: HKO HeLa cells, transfected, in cells; not shown: GFP, C-terminal, kept
B15: LIR(TBC1D25)-GFP (domain or fragment)
chain: PSEDSPLLEDWDIISPKDVIGSDVL
notes: as for B1
B16: LIR(TP53INP1)-GFP (domain or fragment)
chain: PEFNEKEDDEWILVDFIDTCTGFSA
notes: as for B1
B17: LIR(TP)-GFP (domain or fragment)
chain: FVSEEDEVDGWLIIDLPDSYAAPPS
notes: also called TP53INP2 (TP); source: HKO HeLa cells, transfected, in cells; not shown: GFP, C-terminal, kept

Legend:
mRFP-GABARAPL1 [1] = biological target: T1, mRFP-GABARAPL1 (UniProt Q9H0R8 1-117); experiment: recruitment of LIR-GFP or gProbe; design: unit not given here; conditions: partners not purified
T1 construct: also called membrane-anchored GABARAPL1

LC3A (purified, for ITC) = experiment: ITC; conditions: both partners purified
mRFP-GABARAPL1 [2] = biological target: T1, mRFP-GABARAPL1; experiment: recruitment of LIR-GFP or gProbe to mRFP-mATG8-containing autophagic membranes (A:C ratio), microscopy; LIR(X)-GFP or gProbe-X co-expressed with one mRFP-mATG8 in HKO HeLa cells; 100 nM BafA1 in EBSS for 2 h; fixed in 4% PFA; autophagosome:cytosol GFP ratio normalized to GFP-expressing cells; conditions: partners not purified

T1 sequence (Q9H0R8 whole entry): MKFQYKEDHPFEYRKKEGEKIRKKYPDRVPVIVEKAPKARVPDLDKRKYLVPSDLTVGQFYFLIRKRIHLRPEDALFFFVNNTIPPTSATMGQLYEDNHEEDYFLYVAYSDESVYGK

Binder | other (mRFP-GABARAPL1 [1]) | also measured
B1 | 2.81 | –
B2 | 1.58 | –
B3 | 2.5 | –
B4 | – | Kd (LC3A (purified, for ITC)): > 132 µM
B5 | 3.06 | –
B6 | 2.18 | –
B7 | 2.19 | –
B8 | 2.93 | –
B9 | 2.65 | –
B10 | – | normalized A:C ratio (mRFP-GABARAPL1 [2]): 1.45
B11 | – | normalized A:C ratio (mRFP-GABARAPL1 [2]): 1.96
B12 | 1.46 | –
B13 | 1.86 | –
B14 | 5.08 | –
B15 | 1.41 | –
B16 | 2.43 | –
B17 | 5 | –

From PMC10240976 (Autophagy, 2022)
